US20090304768A1, “Gastro-Retentive System for the Delivery of Macromolecules” (INTEC PHARMA LTD, priority 2006, published 2009)

Tests used:
[1] = Stability assay of PTH 1-34 in various buffer solutions over 24 hr at 37° C.; format: physicochemical
Experimental: The stability of PTH 1-34 in various buffer solutions over 24 hr at 37° C. was evaluated to allow selection of a suitable buffer for in vitro release experiments. The lyophilized peptide (0.1 mg) was dissolved in each buffer solution that was tested. The concentration of PTH 1-34 in samples withdrawn from the solution at 0, 4, 8, and 24 hours were analyzed by HPLC (Gemini (Phenomenex) 5 μ C18, 250×4.6; mobile phase˜0.1% Trifluoroacetic acid/Acetonotrile:0.1% Trifluoroacetic acid/Water, gradient elution, 1 mL/min; 100 μL injection, UV PDA detection at 214).

[2] = Stability of the peptide in 1% acid solution, incubation for 24 hr at 37° C.; format: physicochemical; conditions: 1% acetic acid
Experimental: PTH 1-34 (molecular weight of 4117.8, UCB Bioproducts, USA) was received as a lyophilized powder. The peptide was made up in 1% acetic acid. The stability of the peptide in 1% acid solution was confirmed by incubating it for 24 hr at 37° C.

In the case of “PTH 1-34: Parathyroid hormone fragment 1-34, molecular weight 4117.8, UCB Bioproducts, lyophilized powder”, the “stability at pH=2.2 over 24 hr” value ([1]; KCl/Cl buffer pH=2.2, over 24 hr) is reported as “stable”, the “stability at pH=1.2” value ([1]; buffer pH=1.2, 37° C.) is reported as “decreased stability” and the “stability at pH>7” value ([1]; buffer pH>7, 37° C.) is reported as “decreased stability”. For the same substance, the “stability in various buffer solutions” value ([1]; various buffer solutions, 24 hr at 37° C.) was “stable over a wide range of pH values” and the “stability of the peptide in 1% acid solution” value [2] was “confirmed”.
